# Like-named read-outs stand apart in the source and are kept apart here.
# What was measured:
# pro-MMP-9 [1] = target: T1, pro-MMP-9 (Homo sapiens, UniProt P14780, Q279R/R574P); settings: cited from earlier work
# T1 construct: Human MMP-9 protein (without)
# HT1080 cells = settings: cited from earlier work
# [2] = in vivo; cited from earlier work
# [3] = Pooled safety analysis of double-blind placebo-controlled trials, subcutaneous andecaliximab monotherapy, non-oncologic conditions; type: in vivo, human; settings: for Participants with TEAE assessed as related to study drug: double-blind period
# Experimental: A pooled analysis was conducted of all safety data from prior randomized, double-blind, placebo-controlled clinical trials where andecaliximab was administered subcutaneously as a monotherapy in non-oncologic conditions.
# The pooled safety analysis consisted of 347 patients enrolled in double-blind (DB) placebo-controlled trials [age 18-78 yrs, median duration of treatment: DB=8 wk; DB+ open label extension (OLE)=17 wk; max 75 wk]. During the DB treatment period, treatment-emergent adverse event (TEAE) assessed as related to study drug occurred in 19 (17.8%) receiving 150 mg Q2W, 23 (20.2%) receiving 150 mg QW, 13 (22.4%) receiving 300 mg QW, none of those receiving 600 mg andecaliximab QW, and 20 participants (22.0%) received a placebo. Treatment-related TEAEs more common with andecaliximab compared with placebo (difference of >1 percentage point) were injection site erythema (2.1% versus 1.1%), headache (1.4% versus 0%), anemia (1.1% versus 0%), and injection site pain (1.1% versus 0%).
# MMP-9 [4] = target: T2, MMP-9 (Homo sapiens, UniProt P14780); settings: cited from earlier work
# Target sequence in this assay (P14780 107-707 limits assumed): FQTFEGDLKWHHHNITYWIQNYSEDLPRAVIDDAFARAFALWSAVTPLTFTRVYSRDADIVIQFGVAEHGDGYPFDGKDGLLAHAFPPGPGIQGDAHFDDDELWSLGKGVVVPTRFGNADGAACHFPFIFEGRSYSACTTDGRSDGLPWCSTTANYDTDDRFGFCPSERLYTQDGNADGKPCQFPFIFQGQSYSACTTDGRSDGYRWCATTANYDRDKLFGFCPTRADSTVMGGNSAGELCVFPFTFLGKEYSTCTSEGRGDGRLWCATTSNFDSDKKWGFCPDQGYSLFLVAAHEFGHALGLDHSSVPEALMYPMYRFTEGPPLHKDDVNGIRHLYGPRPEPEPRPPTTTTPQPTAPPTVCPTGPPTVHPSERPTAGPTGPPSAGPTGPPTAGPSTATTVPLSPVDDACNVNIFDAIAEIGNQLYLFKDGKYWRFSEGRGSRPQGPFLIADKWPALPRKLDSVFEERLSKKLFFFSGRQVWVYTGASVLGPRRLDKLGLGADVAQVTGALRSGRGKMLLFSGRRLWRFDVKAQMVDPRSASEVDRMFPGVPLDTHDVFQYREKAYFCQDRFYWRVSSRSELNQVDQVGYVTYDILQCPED
# [5] = human, in vivo; cited from earlier work
# pro-MMP-9 [6] = target: T1, pro-MMP-9; settings: cited from earlier work; remark: listed apart in the source
# pro-MMP-9 [7] = target: T1, pro-MMP-9; settings: read-out: IC50, activation of MMP-9 from human pro-MMP-9; cited from earlier work
# MDA-MB-435 = MDA-MB-435 mouse models; cited from earlier work
# [8] = tested on: fibrodysplasia ossificans progressiva; settings: in vivo; cited from earlier work
# MMP-9 [9] = target: T2, MMP-9; settings: read-out: Ki against MMP-9, cited from earlier work
# Target sequence in this assay (P14780 94-707): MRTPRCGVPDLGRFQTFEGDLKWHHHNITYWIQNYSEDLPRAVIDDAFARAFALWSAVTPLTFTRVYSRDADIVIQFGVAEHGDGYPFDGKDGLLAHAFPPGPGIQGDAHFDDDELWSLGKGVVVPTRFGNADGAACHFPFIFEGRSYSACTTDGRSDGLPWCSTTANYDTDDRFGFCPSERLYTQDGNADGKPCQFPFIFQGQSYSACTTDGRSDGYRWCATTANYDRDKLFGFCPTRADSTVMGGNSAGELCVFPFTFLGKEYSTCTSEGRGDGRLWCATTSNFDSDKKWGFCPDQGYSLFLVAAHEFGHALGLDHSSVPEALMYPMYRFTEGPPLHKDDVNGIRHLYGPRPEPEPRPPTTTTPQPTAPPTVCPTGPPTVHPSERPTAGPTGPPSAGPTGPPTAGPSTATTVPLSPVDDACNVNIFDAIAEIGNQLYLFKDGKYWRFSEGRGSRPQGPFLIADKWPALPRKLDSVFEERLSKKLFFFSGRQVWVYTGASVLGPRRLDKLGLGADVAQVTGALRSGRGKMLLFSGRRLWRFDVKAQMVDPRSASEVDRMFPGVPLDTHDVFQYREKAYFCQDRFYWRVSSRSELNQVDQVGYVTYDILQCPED
# [10] = tested on: mouse model of multiple sclerosis; settings: cited from earlier work
# [11] = tested on: colorectal carcinoma xenograft; settings: surgical orthotopic xenograft model of colorectal carcinoma; cited from earlier work
# heterotopic ossification = assay: Inducible FOP mouse model (Acvr1 R206H, tamoxifen plus cardiotoxin), HO volume by micro-CT; type: in vivo, mice; settings: 30 mg/kg loading, then 15 mg/kg IP; micro CT 14-24 days post-injury
# Experimental: FIG. 1 is a plot showing heterotopic ossification (HO) in an inducible mouse model of FOP having the R206H mutation (Acvr1[R206H]FIEx/+, Gt(ROSA26)SorCreERT2/+) treated with a control vehicle or AB0046 antibody (murine surrogate of andecaliximab that recapitulates MMP-9 inhibitory activity). The induction of disease occurred via tamoxifen (75 mg/kg×7 days, IP) and cardiotoxin injection on day 0 (10 μM, 100 μL) in the right gastrocnemius muscle. Dosing occurred at 30 mg/kg three days prior to injury (loading dose to address initial target-mediated drug disposition), then 15 mg/kg on days 0 and 3, or 15 mg/kg continuing twice per week after day […]. Ex vivo quantification of HO at the injury site was assessed using high-resolution micro CT and analyzed using 3D morphometry.
# As described in Hatsell et al (Science Translational Medicine 2015), a knock-in transgenic model (Acvr1[R206H]FIEx/+; Gt(ROSA26)SorCreERT2/+) is used for these studies. […]
# Faxitron images (medio-lateral view) of the collected entire right and left hindlimbs from all animals were performed (ex vivo) to document the presence of ectopic bone. Images were assessed qualitatively.
# The effect of the anti-MMP-9 antibody, AB0046, on bone formation in the mouse model was evaluated ex vivo at the end of the in-life period. […]
# [12] = pooled andecaliximab (placebo 0%)
# T1 sequence (P14780 20-707 Q279R/R574P): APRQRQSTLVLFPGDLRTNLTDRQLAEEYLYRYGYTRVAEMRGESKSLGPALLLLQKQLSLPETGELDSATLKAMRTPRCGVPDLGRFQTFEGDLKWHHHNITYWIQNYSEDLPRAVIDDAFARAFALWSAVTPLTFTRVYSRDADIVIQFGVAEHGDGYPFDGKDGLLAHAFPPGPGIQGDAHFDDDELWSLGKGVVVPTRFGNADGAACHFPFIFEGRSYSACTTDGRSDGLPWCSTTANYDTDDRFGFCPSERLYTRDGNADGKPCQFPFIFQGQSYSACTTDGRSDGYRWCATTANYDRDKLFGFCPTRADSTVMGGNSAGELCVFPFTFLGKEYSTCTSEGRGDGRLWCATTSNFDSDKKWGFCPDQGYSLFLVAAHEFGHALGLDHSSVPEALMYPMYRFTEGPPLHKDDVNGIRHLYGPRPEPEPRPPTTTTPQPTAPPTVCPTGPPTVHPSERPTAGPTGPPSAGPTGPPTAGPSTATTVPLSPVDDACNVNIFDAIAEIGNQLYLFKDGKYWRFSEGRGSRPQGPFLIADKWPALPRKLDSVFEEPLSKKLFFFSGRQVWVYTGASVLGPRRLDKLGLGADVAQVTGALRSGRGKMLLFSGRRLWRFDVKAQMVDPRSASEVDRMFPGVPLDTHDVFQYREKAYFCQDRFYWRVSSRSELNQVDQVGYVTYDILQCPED
molecule,measurement,setting,value
"COc1ccccc1Nc1nc(-c2sc(NC(C)=O)nc2C)cs1 [JNJ0966, N-(2-((2-methoxyphenyl)amino)-4′-methyl-[4,5′-bithiazol]-2′yl) acetamide]",Activation of pro-MMP-9,pro-MMP-9 [1],prevents the activation of pro-MMP-9
same,Migration of HT1080 cells,HT1080 cells,inhibits the migration of HT1080 cells
same,Blood-brain barrier penetration,[2],penetrates the blood-brain barrier
"andecaliximab: anti-MMP-9 recombinant chimeric, humanized antibody; heavy chain SEQ ID NO: 35, light chain SEQ ID NO: 36",Participants with TEAE assessed as related to study drug,[3]; 150 mg Q2W,17.8%
same,Participants with TEAE assessed as related to study drug,[3]; 150 mg QW,20.2%
same,Participants with TEAE assessed as related to study drug,[3]; 300 mg QW,22.4%
same,Participants with TEAE assessed as related to study drug,[3]; 600 mg QW,none
same,Treatment-related TEAE: anemia,[3]; [12],1.1%
same,Treatment-related TEAE: headache,[3]; [12],1.4%
same,Treatment-related TEAE: injection site pain,[3]; [12],1.1%
same,Treatment-related TEAE: injection site erythema,[3]; pooled andecaliximab (placebo 1.1%),2.1%
same,Kd,MMP-9 [4],2 to 6.6 nM
same,Safety and tolerability in clinical trials,[5],safe and well-tolerated
same,Kd,pro-MMP-9 [6],0.008 to 0.043 nM
same,IC50,pro-MMP-9 [7],8.2 pM
CCCc1cc(=O)nc(SCC(=O)Nc2ccc(OC(F)F)cc2)[nH]1 [N-[4-(difluoromethoxy)phenyl]-2-[(4-oxo-6-propyl-1H-pyrimidin-2-yl)sulfanyl]-acetamide],Tumor growth and metastasis,MDA-MB-435,reduced tumor growth and metastasis
"CC1(C)CCC(C)(C)c2cc(Cn3cccn3)c(/C=C/c3ccc(C(=O)O)cc3)cc21 [Palovarotene, palovarotene]",Effect in mouse model of fibrodysplasia ossificans progressiva,[8],shown promise
"α1(V)GlyΨ{PO2H—CH2} Val [mep14, 32,Flp15, 33] THPI",Ki,MMP-9 [9]; 25° Celsius,90.6 nM
same,Ki,MMP-9 [9]; 37° Celsius,0.98 nM
same,Clinical severity and weight loss,[10],effectively reduced clinical severity and weight loss
AB0046: murine surrogate of andecaliximab that recapitulates MMP-9 inhibitory activity; SEQ ID NO: 33 and 32 (antibody) heavy: MGWSSIILFLVATATGVHSQVQLQQPGSVLVRPGASVKLSCTASGYTFTSYWMNWVKQRPGQGLEWIGEIYPISGRTNYNEKFKVKATLTVDTSSSTAYMDLNSLTSEDSAVYYCARSRANWDDYWGQGTTLTVSSAKTTPPSVYPLAPGSAAQTNSMVTLGCLVKGYFPEPVTVTWNSGSLSSGVHTFPAVLQSDLYTLSSSVTVPSSTWPSETVTCNVAHPASSTKVDKKIVPRDCGCKPCICTVPEVSSVFIFPPKPKDVLTITLTPKVTCVVVDISKDDPEVQFSWFVDDVEVHTAQTQPREEQFNSTFRSVSELPIMHQDWLNGKEFKCRVNSAAFPAPIEKTISKTKGRPKAPQVYTIPPPKEQMAKDKVSLTCMITDFFPEDITVEWQWNGQPAENYKNTQPIMDTDGSYFVYSKLNVQKSNWEAGNTFTCSVLHEGLHNHHTEKSLSHSPGK light: MSSAQFLGLLLLCFQGTRCDIQMTQTTSSLSASLGDRVTISCSASQGISNYLNWYQQKPDGTFKLLIYYTSILHSGVPSRFSGSGSGTDYSLTISNLEPEDIATYYCQQYGWLPRTFGGGTKLEIKRADAAPTVSIFPPSSEQLTSGGASVVCFLNNFYPKDINVKWKIDGSERQNGVLNSWTDQDSKDSTYSMSSTLTLTKDEYERHNSYTCEATHKTSTSPIVKSFNRNEC,Tumor growth and metastasis,[11],reduced tumor growth and metastasis
same,Heterotopic ossification (HO) at the injury site versus IgG control,heterotopic ossification,reduced HO in mice

# Source: US12421321B2, “Methods for treating fibrodysplasia ossificans progressiva” (Ashibio, Inc., priority 2023, dated 2025)
